Data reported in PMC6093707, “Single-particle cryo-EM structure of a voltage-activated potassium channel in lipid nanodiscs” (eLife, 2018).
Each block holds one molecule with its values, some of them ahead of it.

Key:
[1] = target: Kv channel auxiliary β subunit (rat) (UniProt P62483); test: negative staining electron microscopy; Kv chimera in lipid nanodiscs diluted to ~0.03 mg/ml, 0.7% uranyl formate; 2D class averages
[2] = target: Kv channel auxiliary β subunit (rat) (UniProt P62483); test: cryo-EM structure; Kv chimera α4β4 complex in MSP1E3D1 lipid nanodiscs (3:1:1 POPC:POPG:POPE); 0.7 mg/ml in 20 mM HEPES-KOH pH 7.5, 150 mM KCl, 2 mM TCEP; gold grids; C4 symmetry imposed
[3] = target: the molecule itself; test: as above

stoichiometry N [1]: 4 | stoichiometry N [2]: 4
Molecule: Kv channel auxiliary β subunit (from UniProt P62483 36-367) (natural protein)

B1: Kv1.2–2.1 paddle chimera channel, α subunit (other)
chain: MTVATGDPVDEAAAHPGHPQDTYDPEADHECCERVVINISGLRFETQLKTLAQFPETLLGDPKKRMRYFDPLRNEYFFDRNRPSFDAILYYYQSGGRLRRPVNVPLDIFSEEIRFYELGEEAMEMFREDEGYIKEEERPLPENEFQRQVWLLFEYPESSGPARIIAIVSVMVILISIVSFCLETLPIFRDENEDMHGGGVTFHTYSQSTIGYQQSTSFTDPFFIVETLCIIWFSFEFLVRFFACPSKAGFFTNIMNIIDIVAIIPYYVTIFLTESNKSVLQFQNVRRVVQIFRIMRILRIFKLSRHSKGLQILGQTLKASMRELGLLIFFLFIGVILFSSAVYFAEADERDSQFPSIPDAFWWAVVSMTTVGYGDMVPTTIGGKIVGSLCAIAGVLTIALPVPVIVSNFNYFYHRETEGEEQAQYLQVTSCPKIPSSPDLKKSRSASTISKSDYMEIQEGVNNSNEDFREENLKTANCTLANTNYVNITKMLTDV
stoichiometry N [3]: 4
